Paper PMC10805922, “Exosomal secreted SCIMP regulates communication between macrophages and neutrophils in pneumonia” (Nature Communications, 2024)
One block for each molecule: values may come before it. Where no end group is shown, it is not given here.

Columns and labels:
[1] = target: T1, human formyl peptide receptor 1 (FPR1) (human, UniProt P21462 1-350); test: other fluorescence titration; competitive binding assay; labelled SCIMP^N mixed with serially diluted fMLF (5-1280 nM) and a fixed amount of FPR-containing HEK293 membrane debris, fluorescence at 512 nm measured for 4 min
T1 construct: formyl peptide receptor 1, human, overexpressed in HEK293 cells; also called FPR1-HEK293; source: HEK293, transiently overexpressed
T1 sequence (looked up): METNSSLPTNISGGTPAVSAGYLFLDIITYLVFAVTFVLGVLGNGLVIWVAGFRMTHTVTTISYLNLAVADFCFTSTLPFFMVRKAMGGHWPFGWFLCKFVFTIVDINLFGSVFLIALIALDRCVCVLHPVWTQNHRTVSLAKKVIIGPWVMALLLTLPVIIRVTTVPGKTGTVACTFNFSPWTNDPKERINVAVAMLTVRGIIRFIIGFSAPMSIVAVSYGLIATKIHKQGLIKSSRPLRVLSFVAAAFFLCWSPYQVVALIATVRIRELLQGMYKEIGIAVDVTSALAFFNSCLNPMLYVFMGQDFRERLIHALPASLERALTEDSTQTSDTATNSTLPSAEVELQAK

[2] = target: T2, human formyl peptide receptor 2 (FPR2) (human, UniProt P25090 1-351); test: as above
T2 construct: formyl peptide receptor 2, human, overexpressed in HEK293 cells; also called FPR2-HEK293; source: HEK293, transiently overexpressed
T2 sequence (looked up): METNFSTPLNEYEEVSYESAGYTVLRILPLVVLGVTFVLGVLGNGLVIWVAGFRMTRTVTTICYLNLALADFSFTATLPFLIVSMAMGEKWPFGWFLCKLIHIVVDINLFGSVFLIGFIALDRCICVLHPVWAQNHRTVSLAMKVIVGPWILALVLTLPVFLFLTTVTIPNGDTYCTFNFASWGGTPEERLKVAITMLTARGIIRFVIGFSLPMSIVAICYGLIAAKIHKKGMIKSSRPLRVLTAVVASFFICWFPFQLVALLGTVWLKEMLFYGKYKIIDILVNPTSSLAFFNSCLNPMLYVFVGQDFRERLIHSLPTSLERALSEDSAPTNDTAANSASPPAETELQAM

[3] = target: T3, murine FPR1 (murine, UniProt P33766 1-364); test: as above
T3 construct: formyl peptide receptor 1, mouse, overexpressed in HEK293 cells; also called murine formyl peptide receptor 1; source: HEK293 overexpressing FPRs, membrane debris
T3 sequence (looked up): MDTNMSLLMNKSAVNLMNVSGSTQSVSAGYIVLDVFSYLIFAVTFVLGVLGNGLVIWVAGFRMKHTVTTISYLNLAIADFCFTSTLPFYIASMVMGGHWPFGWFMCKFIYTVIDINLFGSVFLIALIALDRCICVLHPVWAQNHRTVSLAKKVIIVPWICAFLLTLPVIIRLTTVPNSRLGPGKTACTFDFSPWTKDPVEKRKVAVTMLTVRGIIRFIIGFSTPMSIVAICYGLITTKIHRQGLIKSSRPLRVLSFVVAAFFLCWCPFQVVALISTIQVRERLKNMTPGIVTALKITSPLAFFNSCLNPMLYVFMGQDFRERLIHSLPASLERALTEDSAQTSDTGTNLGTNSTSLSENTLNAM

[4] = target: T4, murine FPR2 (murine, UniProt O88536 1-351); test: as above
T4 construct: formyl peptide receptor 2, mouse, overexpressed in HEK293 cells; also called murine formyl peptide receptor 2; source: HEK293 overexpressing FPRs, membrane debris
T4 sequence (looked up): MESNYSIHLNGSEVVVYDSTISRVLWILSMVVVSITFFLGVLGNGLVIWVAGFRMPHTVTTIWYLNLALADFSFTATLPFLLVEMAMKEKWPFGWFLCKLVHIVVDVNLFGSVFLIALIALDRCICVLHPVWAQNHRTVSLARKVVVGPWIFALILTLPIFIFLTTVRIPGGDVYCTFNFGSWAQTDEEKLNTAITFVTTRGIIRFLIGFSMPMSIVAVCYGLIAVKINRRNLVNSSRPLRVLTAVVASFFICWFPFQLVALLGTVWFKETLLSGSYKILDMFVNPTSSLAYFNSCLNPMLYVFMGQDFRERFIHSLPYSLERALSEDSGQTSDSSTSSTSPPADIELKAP

[5] = target: T3, murine FPR1; test: other fluorescence titration; saturation binding assay; BODIPY FL iodoacetamide-labelled SCIMP^N with membrane component (debris) of HEK293 cells overexpressing FPRs, black/clear bottom 96-well plate, quenching of the label on binding, excited at 370 nm, detected at 512 nm, measured for 4 min; conditions: one partner purified
[6] = target: T4, murine FPR2; test: as above; conditions: one partner purified
[7] = target: T1, human formyl peptide receptor 1 (FPR1); test: as above; conditions: one partner purified
[8] = target: T2, human formyl peptide receptor 2 (FPR2); test: as above; conditions: one partner purified

IC50 [1]: 55.2 nM
IC50 [2]: 38.4 nM
IC50 [3]: 148 nM
IC50 [4]: 43.1 nM
Molecule: N-Formyl-Met-Leu-Phe (fMLF) (peptide)

Kd [5]: 1.08 nM
Kd [6]: 0.54 nM
B1: murine SCIMP N-terminus peptide (murine SCIMP^N) (peptide)
peptide: MSWWRDNF
modifications: also: labeled with BODIPY FL iodoacetamide, site not given here
notes: N-terminus peptide; source: synthetic peptide (chemically synthesized and purified; Chinese-Peptide-Company.Inc), purity more than 95%

Kd [7]: 3.8 nM
Kd [8]: 3.5 nM
B2: human SCIMP N-terminus peptide (SCIMP^N, 18aa) (peptide)
peptide: MDTFTVQDSTAMSWWRNN
modifications: also: labeled with BODIPY FL iodoacetamide, site not given here
notes: the 18 amino acids before the transmembrane domain at the N-terminus (extramembrane fragment); also called SCIMP N-terminal peptides; source: synthetic peptide (Chinese-Peptide-Company.Inc), purity more than 95%
